This assay concerns the target human CD33 protein (R&D Systems) (Homo sapiens, UniProt P20138). Kind of assay: SPR. Background: Surface plasmon resonance follows binding to a sensor surface in real time, without labels.

Chain of human CD33 protein (R&D Systems) (P20138 18-259): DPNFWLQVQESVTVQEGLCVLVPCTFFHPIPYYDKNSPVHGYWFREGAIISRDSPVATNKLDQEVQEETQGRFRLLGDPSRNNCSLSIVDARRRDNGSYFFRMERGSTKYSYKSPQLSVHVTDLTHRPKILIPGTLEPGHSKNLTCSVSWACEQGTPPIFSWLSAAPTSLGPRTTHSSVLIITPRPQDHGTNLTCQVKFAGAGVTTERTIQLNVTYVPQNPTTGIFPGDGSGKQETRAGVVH

B1: anti-CD33 antibody variant S11 (antibody, V domains shown)
VH: QVQLVQSGAEVKKPGSSVKVSCKASGGIFSNHRISWVRQAPGQGLEWMGGIIPIFGTANYAQKFQGRVTITADESTSTAFMELSSLRSEDTAVYYCARAWADVFDIWGQGTMVTVSS
VL: EIVLTQSPLSLPVTPGEPASISCRSSQSLLHSNGYNYLDWYLQKPGQSPQLLIYLGVNSVSGVPDRFSGSGSGTDFTLKISRVEAEDVGVYYCMQALQTPWTFGQGTKVEIK
Take B1: the “fold reduction in binding affinity (KD) against the lead candidate” value stood at 1.4 fold.

B2: anti-CD33 antibody W96F (antibody, V domains shown)
VH: QVQLVQSGAEVKKPGSSVKVSCKASGGIFSNHAISWVRQAPGQGLEWMGGIIPIFGTANYAQKFQGRVTITADESTSTAFMELSSLRSEDTAVYYCAREFADVFDIWGQGTMVTVSS
VL: EIVLTQSPLSLPVTPGEPASISCRSSQSLLHSNGYNYLDWYLQKPGQSPQLLIYLGVNSVSGVPDRFSGSGSGTDFTLKISRVEAEDVGVYYCMQALQTPWTFGQGTKVEIK
B2: the binding result is “no binding” and the “fold loss of binding affinity against the parent antibody” value was more than 1000 fold.

These data come from paper doi:10.1101/2025.06.29.662139 (bioRxiv, 2025).
